Data set [1] concerns the target T1, sN-TALER V.2 (synthetic).
T1 chain: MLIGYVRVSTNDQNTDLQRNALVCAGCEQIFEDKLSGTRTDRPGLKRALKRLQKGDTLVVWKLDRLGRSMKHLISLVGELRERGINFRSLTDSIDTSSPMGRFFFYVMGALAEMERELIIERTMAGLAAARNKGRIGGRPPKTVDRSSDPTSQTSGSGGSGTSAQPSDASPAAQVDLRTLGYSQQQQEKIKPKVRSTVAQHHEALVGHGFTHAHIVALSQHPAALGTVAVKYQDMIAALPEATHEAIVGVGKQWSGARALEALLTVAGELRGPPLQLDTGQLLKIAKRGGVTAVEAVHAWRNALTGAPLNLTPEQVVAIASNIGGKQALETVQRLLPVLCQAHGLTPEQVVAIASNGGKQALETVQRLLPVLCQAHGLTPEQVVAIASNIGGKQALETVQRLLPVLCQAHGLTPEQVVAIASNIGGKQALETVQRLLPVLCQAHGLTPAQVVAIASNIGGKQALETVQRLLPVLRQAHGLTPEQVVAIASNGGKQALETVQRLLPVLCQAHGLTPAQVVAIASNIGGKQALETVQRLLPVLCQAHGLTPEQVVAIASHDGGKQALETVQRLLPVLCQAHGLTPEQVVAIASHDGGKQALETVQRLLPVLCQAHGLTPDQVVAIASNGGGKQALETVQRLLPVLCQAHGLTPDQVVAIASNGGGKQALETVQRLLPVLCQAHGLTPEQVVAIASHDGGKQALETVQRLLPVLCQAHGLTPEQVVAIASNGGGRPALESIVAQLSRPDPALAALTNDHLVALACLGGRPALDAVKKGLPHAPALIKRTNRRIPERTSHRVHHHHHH
Kind of data set: cell_activity; E. coli. As to the method: (§1) The co-transformed bacteria were plated on media with chloramphenicol, kanamycin, and X-gal then incubated at 37° C. for 18 to 36 hours. Control samples consisted of transformations using the reporter construct alone. Control transformants were similarly plated. The bacterial transformation protocol was either heat shock or electroporation per standard molecular biology techniques.
For each of these N-TALER chimera expression constructs, from one to three independent clones were selected for plasmid purification. These N-TALER chimera expression constructs were co-transformed with five of the N-TALER reporter constructs, as indicated in Table 15. […] In contrast to the result for pN-TALER N4.2.2, the chimera sN-TALER N4.2.2, with the same truncation point but a specific recombinase catalytic domain, reporters with 20, 24, or 40 bp of TALER central sequence length were efficiently recombined (score of 1) while reporters with 30 or 50 bp of TALER central sequence length were not recombined (score of 5). For the chimera sN-TALER N4.2, reporters with 20, 24, or 40 bp of TALER central sequence length were efficiently recombined (score of 1); the reporter with 30 bp of TALER central sequence length was poorly recombined (score of 3); and the reporter with 50 bp of TALER central sequence length was not recombined (score of 5). For the chimera pN-TALER N4.2, the recombination efficiency on the reporters tested varied from intermediate (scores of 3 and 4) to none (score of 5). […] In contrast to the result for sN-TALER N3.2, the chimera pN-TALER N3.2, with the same truncation point but a permissive recombinase catalytic domain, recombination efficiency on the reporters tested varied from efficient (scores of 1.5, 2, and 3) to none (score of 5). For both chimeras sN-TALER V.2 and pN-TALER V.2, there was efficient recombination (scores of 1, 1.5, and 2) of the 5 N-TALER reporter constructs tested.

The target in data set [2] is T2, pN-TALER IV-14 (synthetic).
T2 chain: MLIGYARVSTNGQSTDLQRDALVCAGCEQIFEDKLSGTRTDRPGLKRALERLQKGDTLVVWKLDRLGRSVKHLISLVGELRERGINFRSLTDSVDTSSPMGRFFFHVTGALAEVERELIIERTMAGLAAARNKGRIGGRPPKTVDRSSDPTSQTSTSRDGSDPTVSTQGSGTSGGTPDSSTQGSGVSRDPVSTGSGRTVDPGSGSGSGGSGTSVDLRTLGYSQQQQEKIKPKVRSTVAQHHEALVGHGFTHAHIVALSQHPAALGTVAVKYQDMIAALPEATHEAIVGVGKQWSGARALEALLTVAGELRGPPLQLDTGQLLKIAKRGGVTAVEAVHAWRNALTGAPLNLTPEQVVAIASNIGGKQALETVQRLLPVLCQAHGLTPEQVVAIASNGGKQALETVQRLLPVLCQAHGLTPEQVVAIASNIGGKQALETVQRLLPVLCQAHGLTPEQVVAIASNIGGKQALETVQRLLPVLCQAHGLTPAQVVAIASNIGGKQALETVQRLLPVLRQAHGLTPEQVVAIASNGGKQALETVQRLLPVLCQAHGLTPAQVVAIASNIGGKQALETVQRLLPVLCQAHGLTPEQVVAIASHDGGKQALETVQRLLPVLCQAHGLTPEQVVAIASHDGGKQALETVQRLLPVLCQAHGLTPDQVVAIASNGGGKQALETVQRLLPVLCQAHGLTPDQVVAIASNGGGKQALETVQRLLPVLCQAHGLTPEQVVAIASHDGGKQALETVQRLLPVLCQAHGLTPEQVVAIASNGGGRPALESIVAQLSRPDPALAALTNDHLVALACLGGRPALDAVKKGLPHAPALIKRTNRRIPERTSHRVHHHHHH
The data set can be described thus: cell_activity; E. coli. The method, then:
as §1, with “To test for recombination, E. coli DH5alpha cells were co-transformed with different combinations of TALER expression construct and TALER reporter construct pairs (Tables 6 and 7). The N-TALER expression and reporter constructs were in an approximate 1:1 mass ratio during the transformation. The co-transformed” for “The co-transformed”
The N-TALER expression constructs representing the N-TALER chimeras with varying linker lengths were co-transformed with N-TALER reporter constructs with TALER central sequence lengths of 18, 20, 24, 30, 40, and 50 bp (Table 13). […] Recombination did occur, but was less efficient with the pN-TALER IV-14 (linker length of 71 amino acids) with each of the N-TALER reporters tested.

Where a chain is given by its changes, count along the chain named.

B1: Gin18TALE+1 (dsDNA)
DNA 1: AGAAGGTATTTATATCCAAAACCATGGTTTACAATATAAATACCTTCT
DNA 2: B1 DNA 1 with C16T, C17G, A18T, A31T, C32G, A33G
On to B1, for which the activity in data set [1] turned out to be 1 score.

B2: Gin20TALE+0 (dsDNA)
DNA 1: B1 DNA 1 with A34G
DNA 2: AGAAGGTATTTATACTGTAAACCATGGTTTTGGATATAAATACCTTCT
Take B2: the activity in data set [2] stood at 3 score.

Source of the values: patent US20140193915, “COMPOSITIONS AND METHODS FOR CUSTOM SITE-SPECIFIC DNA RECOMBINASES” (Monsanto Technology, LLC, published 2014).
